Experimental data from the Immune Epitope Database (IEDB).
pIC50, pKd: −log10 of the molar value. Each block holds one sequence with its values, some of them ahead of it.

Columns and labels:
[1] = biological target: HLA-B*18:01; assay: IEDB peptide-MHC binding, purified MHC/direct/fluorescence; filed as Kd, often an IC50 or EC50 that approximates it; ≥ and ≤ were set here for values at or beyond the usual limits of such assays; settings: source organism: Dengue virus
[2] = biological target: HLA-B*44:02; assay: as above
[3] = biological target: HLA-B*15:01; assay: IEDB peptide-MHC binding, purified MHC/competitive/fluorescence; filed as Kd, often an IC50 or EC50 that approximates it; ≥ and ≤ were set here for values at or beyond the usual limits of such assays; settings: source organism: Bacillus anthracis str. A0488
[4] = biological target: HLA-A*24:02; assay: IEDB peptide-MHC binding, purified MHC/competitive/fluorescence; ≥ and ≤ were set here for values at or beyond the usual limits of such assays
[5] = biological target: HLA-A*02:01; assay: as above
[6] = biological target: HLA-B*15:01; assay: as above
[7] = biological target: HLA-B*44:02; assay: IEDB peptide-MHC binding, purified MHC/competitive/radioactivity; filed as Kd, often an IC50 or EC50 that approximates it; ≥ and ≤ were set here for values at or beyond the usual limits of such assays
[8] = biological target: HLA-B*44:03; assay: as above
[9] = biological target: HLA-B*40:01; assay: as above
[10] = biological target: HLA-B*40:01; assay: IEDB peptide-MHC binding, purified MHC/direct/fluorescence; filed as Kd, often an IC50 or EC50 that approximates it; ≥ and ≤ were set here for values at or beyond the usual limits of such assays
[11] = biological target: HLA-B*15:17; assay: IEDB peptide-MHC binding, purified MHC/competitive/fluorescence; filed as Kd, often an IC50 or EC50 that approximates it; ≥ and ≤ were set here for values at or beyond the usual limits of such assays
[12] = biological target: HLA-A*11:01; assay: IEDB peptide-MHC binding, purified MHC/direct/fluorescence; filed as Kd, often an IC50 or EC50 that approximates it; ≥ and ≤ were set here for values at or beyond the usual limits of such assays
[13] = biological target: HLA-A*26:01; assay: as above
[14] = biological target: HLA-B*08:01; assay: as above
[15] = biological target: HLA-B*58:01; assay: as above
[16] = biological target: HLA-B*07:02; assay: as above
[17] = biological target: HLA-A*02:01; assay: as above
[18] = biological target: HLA-B*27:05; assay: as above
[19] = biological target: HLA-A*69:01; assay: as above
[20] = biological target: HLA-A*31:01; assay: as above
[21] = biological target: HLA-A*03:01; assay: as above
[22] = biological target: HLA-B*15:01; assay: as above
[23] = biological target: HLA-A*01:01; assay: as above
[24] = biological target: HLA-A*23:01; assay: IEDB peptide-MHC binding, purified MHC/competitive/radioactivity; filed as Kd, often an IC50 or EC50 that approximates it; ≥ and ≤ were set here for values at or beyond the usual limits of such assays
[25] = biological target: HLA-A*26:01; assay: as above
[26] = biological target: HLA-A*29:02; assay: as above
[27] = biological target: HLA-A*24:02; assay: as above
[28] = biological target: HLA-A*30:02; assay: as above
[29] = biological target: HLA-A*01:01; assay: as above
[30] = biological target: HLA-A*24:03; assay: IEDB peptide-MHC binding, purified MHC/direct/fluorescence; filed as Kd, often an IC50 or EC50 that approximates it; ≥ and ≤ were set here for values at or beyond the usual limits of such assays; settings: source organism: Giardia lamblia ATCC 50803
[31] = source organism: Vaccinia virus WR
[32] = source organism: Dengue virus 2 Jamaica/1409/1983
[33] = source organism: Sudan ebolavirus
[34] = source organism: Zaire ebolavirus
[35] = source organism: Dengue virus 4 Philippines/H241/1956
[36] = source organism: Dengue virus 1 Brazil/97-11/1997
[37] = source organism: Influenza A virus (A/egret/Hong Kong/757.3/2002(H5N1))
[38] = source organism: Corynebacterium glutamicum
[39] = source organism: Corynebacterium efficiens
[40] = source organism: Dengue virus 3 Martinique/1243/1999
[41] = source organism: Comamonas sediminis
[42] = source organism: SARS coronavirus Tor2
[43] = source organism: Lassa virus Josiah
[44] = source organism: Giardia lamblia ATCC 50803

Sequence: AELTGYGTV
pKd [1]: 6.33
pKd ([2]; source organism: Dengue virus): ≤ 4.70

Sequence: AEVRPVVSY
pKd [3]: 7.13

Sequence: CMIRWLGGI
pIC50 [4, 31]: 5.40
pIC50 [5, 31]: 6.37
pIC50 [6, 31]: 4.52

Sequence: EEEQTLTILI
pKd [7, 32]: 7.76
pKd [8, 32]: 6.89

Sequence: FQLNDTIHL
pIC50 [4, 33]: 4.43
pIC50 [5, 33]: 5.82
pIC50 [6, 33]: 4.30

Sequence: FQQTNAMVT
pIC50 [5, 34]: 4.96
pIC50 [6, 34]: 4.44

Sequence: GEEVQVLAL
pKd [9, 32]: 8.51

Sequence: GEGLHRLGY
pKd [7, 35]: 7.94
pKd [8, 35]: 7.75

Sequence: GEVDSFSLGI
pKd [9, 36]: 7.25
pKd [8, 36]: 7.71

Sequence: HEGYEEFTM
pKd [2, 37]: ≤ 4.70
pKd [10, 37]: 7.92

Sequence: HEWCCRSCTL
pKd [9, 36]: 8.40

Sequence: IEEGRTLRVL
pKd [9, 36]: 7.14

Sequence: IENTTANISL
pKd [9, 36]: 8.50

pKd [11, 38]: ≥ 9.00
pKd [12, 39]: ≤ 4.70
pKd [13, 39]: ≤ 4.70
pKd [14, 39]: ≤ 4.70
pKd [15, 38]: 8.35
pKd [10, 39]: ≤ 4.70
pKd [16, 39]: ≤ 4.70
pKd [17, 39]: ≤ 4.70
pKd [18, 39]: ≤ 4.70
pKd [19, 38]: 6.29
pKd [20, 39]: ≤ 4.70
pKd [21, 39]: ≤ 4.70
pKd [22, 39]: ≤ 4.70
Sequence: ITWETPMIW

Sequence: KEAVEDERFW
pKd [7, 36]: 7.34
pKd [8, 36]: 6.52

Sequence: KEEESEGAI
pKd [9, 40]: 7.33

Sequence: KEEHNSTWHY
pKd [7, 40]: 6.74
pKd [8, 40]: 4.98

Sequence: KEFAAGRKSL
pKd [9, 32]: 8.02

pKd [11, 41]: 8.87
pKd [12, 41]: ≤ 4.70
pKd [13, 41]: ≤ 4.70
pKd [14, 41]: ≤ 4.70
pKd [15, 41]: 8.08
pKd [10, 41]: ≤ 4.70
pKd [16, 41]: ≤ 4.70
pKd [17, 41]: ≤ 4.70
pKd [18, 41]: ≤ 4.70
pKd [19, 41]: ≤ 4.70
pKd [23, 41]: ≤ 4.70
pKd [20, 41]: 5.33
pKd [21, 41]: ≤ 4.70
pKd [22, 41]: 5.75
Sequence: KSLGIDQIW

Sequence: LHHAYQGDY
pIC50 [6, 34]: ≤ 3.69

Sequence: MEDKTPVESW
pKd [7, 32]: 7.48
pKd [8, 32]: 7.15

Sequence: NAAISDYDYY
pKd [24, 42]: ≤ 4.15
pKd [25, 42]: 5.79
pKd [26, 42]: 6.16
pKd [27, 42]: ≤ 4.15
pKd [28, 42]: 6.56
pKd [29, 42]: 7.91

Sequence: NERGKSLLF
pKd [7, 40]: 6.33
pKd [8, 40]: 6.91

Sequence: NYLFGGFST
pIC50 ([4]; source organism: Variola virus): 5.78
pIC50 ([5]; source organism: Variola virus): 4.63
pIC50 ([6]; source organism: Variola virus): ≤ 3.54

Sequence: PEDPVEIALY
pKd [24, 43]: ≤ 4.15
pKd [25, 43]: ≤ 4.16
pKd [26, 43]: 4.82
pKd [27, 43]: ≤ 4.15
pKd [28, 43]: 6.02
pKd [29, 43]: ≤ 4.46

Sequence: PPQATAKYL
pKd [12, 44]: ≤ 4.70
pKd [13, 44]: ≤ 4.70
pKd [2, 44]: ≤ 4.70
pKd [14, 44]: ≤ 4.70
pKd [15, 44]: ≤ 4.70
pKd [10, 44]: ≤ 4.70
pKd [17, 44]: ≤ 4.70
pKd [18, 44]: ≤ 4.70
pKd [30]: 5.02
pKd [19, 44]: ≤ 4.70
pKd [23, 44]: ≤ 4.70
pKd [20, 44]: ≤ 4.70
pKd [21, 44]: ≤ 4.70
pKd [22, 44]: ≤ 4.70
